In paper PMC7002338:

Tested on: CgpS (Corynebacterium glutamicum ATCC 13032 (strain of the protein implied?))
Experiment: SPR
Conditions: SPR: biotinylated DNA on streptavidin chip, CgpS 180 s association, 420 s dissociation, EMSA: 14 nM DNA, buffer, salt, pH and temperature in Text S1, not in …

| Substance | Kd [µM] | Kd (very fast dissociation) [µM] |
| --- | --- | --- |
| Pcg1999 | 0.058 | – |
| Pcg3336 (control) | – | 0.381 |
| Plys (SPR) | 0.011 | – |
